# Assay: soluble on expression in E. coli; label from the status in PepcDB or PDB records
row,Sequence,soluble on expression in E. coli
1,MGSDKIHHHHHHMILKTKLFGKVYQFTSVKEVLAKANEEKSGDKLAGVAANSAEERVAAKVVLSELSLNDLFNNPVVDYDEDEVTRIIIDQVNMRIFESIKHWTVAELREFILSSETTDFDIKRISRGLTSEMIAAVCKLMSNMDLIVGAKKINIEKTANTTIGRPGTFSNRLQPNHPTDNVDGIMASVMEGLSYGAGDALIGLNPVDDSTESVKRILNKFEEFRSEWEIPTQTCVLAHVTTQMEAMRQGAPTGLVFQSIAGSEKGNTAFGLNAEILAEAQDLALHSGQAAGPNVMYFETGQGSELSSEANFGADQVTMEARCYGLAKKFDPYIVNTVVGFIGPEYLYDSKQVIRAGLEDHFMGKLTGISMGCDVCYTNHMKADQNDMENLAMLLATAGCTYIMGIPHGDDVMLNYQTTGFHETATIRETLGLRPIKEFEEWMEKMGLMENGKLTSRAGDASVFIK,not soluble
2,MKKILFICLGNICRSPMAEFIMKDLVKKANLEKEFFINSAGTSGEHDGEGMHYGTKNKLAQLNIEHKNFTSKKLTQKLCDESDFLITMDNSNFKNVLKNFTNTQNKVLKITDFSPSLNYDEVPDPWYSGNFDETYKILSLACKNLLVFLSKHHHHH,soluble
3,AIAVSRLEHPAGGYKKVFESCEELAEPIPAHVSGKIPAWLSGSLLRMGPGLFEIGDEPFNHLFDGQALIHKFDLKDGRVTYHRKFIRTDAYVRAMTEKRVVITELGTAAYPDPCKNIFSRFFTYFQGTEVTDNCSVNIYPIGEDFYACTETNFITKVNPDTLETIKKVDLCNYLSVNGLTAHPHIEADGTVYNIGNCFGKNMSLAYNIVKIPPLQEEKSDPLAMSKVLVQFPSSERFKPSYVHSFGMTENHFVFVETPVKINLLKFLTSWSIRGSNYMDCFESNDRMGTWFHLAAKNPGKYINNPSQ,soluble
4,SMEEKLENEPDFQYIPEKAPLDSVHQDDHSLRESMIQLAEGLITGTVLTQFDQLYRKKPGMTMSCAKLPQNISKNRYRDISPYDATRVILKGNEDYINANYINMEIPSSSIINQYIACQGPLPHTCTDFWQMTWEQGSSMVVMLTTQVERGRVKCHQYWPEPTGSSSYGCYQVTCHSEEGNTAYIFRKMTLFNQEKNESRPLTQIQYIAWPDHGVPDDSSDFLDFVCHVRNKRAGKEEPVVVHCSAGIGRTGVLITMETAMCLIECNQPVYPLDIVRTMRDQRAMMIQTPSQYRFVCEAILKVYEEGFVKPLTTSTNKLT,soluble
5,MGSDKIHHHHHHMVKLPPLSLYIHIPWCVQKCPYCDFNSHALKGEVPHDDYVQHLLNDLDNDVAYAQGREVKTIFIGGGTPSLLSGPAMQTLLDGVRARLPLAADAEITMEANPGTVEADRFVDYQRAGVNRISIGVQSFSEEKLKRLGRIHGPQEAKRAAKLASGLGLRSFNLDLMHGLPDQSLEEALGDLRQAIELNPPHLSWYQLTIEPNTLFGSRPPVLPDDDALWDIFEQGHQLLTAAGYQQYETSAYAKPGYQCQHNLNYWRFGDYIGIGCGAHGKVTFPDGRILRTTKTRHPRGFMQGRYLESQRDVEATDKPFEFFMNRFRLLEAAPRVEFIAYTGLCEDVIRPQLDEAIAQGYLTECADYWQITEHGKLFLNSLLELFLAE,not soluble
6,AHHHHHHGSKNLYLPITIDHIARVEGKGGVEIIIGDDGVKEVKLNIIEGPRFFEAITIGKKLEEALAIYPRICSFCSAAHKLTALEAAEKAVGFVPREEIQALREVLYIGDMIESHALHLYLLVLPDYRGYSSPLKMVNEYKREIEIALKLKNLGTWMMDILGSRAIHQENAVLGGFGKLPEKSVLEKMKAELREALPLAEYTFELFAKLEQYSEVEGPITHLAVKPRGDAYGIYGDYIKASDGEEFPSEKYRDYIKEFVVEHSFAKHSHYKGRPFMVGAISRVINNADLLYGKAKELYEANKDLLKGTNPFANNLAQALEIVYFIERAIDLLDEALAKWPIKPRDEVEIKDGFGVSTTEAPRGILVYALKVENGRVSYADIITPTAFNLAMMEEHVRMMAEKHYNDDPERLKILAEMVVRAYDPCISCSVHVVRL,soluble
7,MGSDKIHHHHHHMRYFARIAELGSFTRAASELGVAQPALSLHVRALEDQLGLQLLNRTSRGVVVTEAGQTLLVHAQAILRAVEQAEAATREQAKYPSGDVSLGILSSLSPILSIPVLEACDRRFPKIRLTISEGDSQTLRTATDIHAHDLAVNLLDVAKPTAVPLFDERLYAVGPLNAFTQRQNDLPLREALSLPLIMPSQRHGIRILLEKQALILGQKINIVRVIEGVASTKAAIRAGLGLTILGRGAVYADHQAGQLSVIPLRAPELFRRLVLDMPVNHPPTKAVLEVRQILMEVIKRLGGEGHWSCLA,not soluble
8,SVIGRIHSFESCGTVDGPGIRFITFFQGCLMRCLYCHNRDTWDTHGGKEVTVEDLMKEVVTYRHFMNASGGGVTASGGEAILQAEFVRDWFRACKKEGIHTCLDTNGFVRRYDPVIDELLEVTDLVMLDLKQMNDEIHQNLVGVSNHRTLEFAKYLANKNVKVWIRYVVVPGWSDDDDSAHRLGEFTRDMGNVEKIELLPYHELGKHKWVAMGEEYKLDGVKPPKKETMERVKGILEQYGHKVMF,soluble
9,GPGSMPADEAQAPTQTEVYDRLKWNGWGVEDVQMQIDDENPLWVRHVDGKPIKNLLEFLYQEISGGVGPKEIPPLSPSIPLEKALAKLNKANINEAFMKDISAVLEKSQIRPDGKSRLCHIAGKNYRDLWRVRKGMVEHAPDCILLPNSHKDCVEIMRLAHKHNVVVIPFGGGTNVTGGVEADPFERARMIISVDMRRMNRMISIDRESRLATFETGVLGPDLDAQLFRHGFMLGHDPDSYIYSTLGGWIGARGSGAMSNQYGDIEDMVVAVKVATPTGIIETPTTSRTCGVDLNGLFIGSEGSFGIITEATIKLETIPETKLYEGYLFPTFEAGFSAFYTCTAKGIHPCTMRLYDEDDFRMSMAMSTTKHSFFQRLVSMGVKSFLERYRGWNLRRISLVIVGFEGTPDRVKFQRSETAAVFKQYGGVGVGRSAGATWQDKKYDLPYIRDFALSLSHWADVFETSVLYSQAIPCWRAVKAAVRQVWKEHGHRGWIGCHTAHQYKYGCCLYFTFASAQKDDMDMKIFLAIKKRATEAMLAHTGNLTHHHGIGYEHVPWMSRYMGPDALDLLFAVKQKVDPKNICNPGKLLPSPPRENESAAALKARQQRELMFDKMGVPGAVASHI,not soluble
10,SNAMADKIKVGLLGYGYASKTFHAPLIMGTPGLELAGVSSSDASKVHADWPAIPVVSDPQMLFNDPSIDLIVIPTPNDTHFPLAQSALAAGKHVVVDKPFTVTLSQANALKEHADDAGLLLSVFHNRRWDSDFLTLKTLLAEGSLGNVVYFESHFDRYRPEIRQRWREQAGAGGGIWYDLGPHLLDQALQLFGLPETLNVDLGMLRPGSQSVDYFHAVLSYPGQRVVLHSTVLAAAETARYIVHGTQGSYIKFGVDPQEDRLKAGERLPQADWGYDMRDGIVTLSHDNVLTEKPLLTLPGNYPAYYAGIRDAIWGTAPNPVPATEAIKVMELIELGIASDQQKKALPIIAKN,soluble
11,GSSHHHHHHSFFFLSFHISNLQFNSSLEDPSTDYYQELQRDISEMFLQIYKQGGFLGLSNIKFRPG,soluble
12,RRTAEAERDRLNELLQIFTAAVPGVVYAKDLEGRMLVANRGTAELVGKPPEFFIGKTDLEFLDDEQQARVLMETDQRIMQSNVSEQIEEKVNLADGSAAIWLSTKAPLLDRNGDVIGLIGSSIDVT,not soluble
13,VRNSPDLLDEIRAGITVHARPDLQTPIDGLLLSKVTAESAAPEYSLTEPLLVIMTQGGKRLLLGDRLYEYRAGQCLVVTASVPVTGHYIDISEGAPSLAMGLVLRPAAIAALVLQAPTERWSRGAAGVPAIETGDADVHLLDAAARMLRLLDHPADAPVLAPLIEQEILWRLLTGPHGSTIRQIGMADSDLAHVSRAIHWIRDNYSEPMRIDDLARLSSMSASAFHRHFRAVTAMSPLQYQKRIRLQHARSMLVAHPGDVAGVGHHVGYDSPSQFNREYRRLFGASPGKDAHGLRGNTALSDTGPLP,not soluble
14,QSSKSPLTAALGLDISGTPIITDLQKMPHGLIAGATGSGKSVCINSLLVSLLYKATPDQLKLLLIDPKMVELAPYNRIPHLVSPVITDAKAATVALKWAVEEMERRYQLFSHTGVRNMEKYNEYASHPDHTGEKLPYILIVIDELADLMMVAPNDVEESISRIAQKARACGIHMIVATQRPSV,not soluble
15,MSATRHRSDGHEEIVALDALPLSAAIRRRELSCREVMQAYLAQIERFNPRVNAIVSLQAESRLLTQADERDRQLARGEWLGWMHGMPQAIKDLAATSGIPTTLGSPLFAGQVPEHDAIVVERVKSSGAIVIGKTNVPEFGLGSQTYNPLFGTTRNAYDPARIAGGSSGGAAVALALRMLPVADGSDMMGSLRNPAAYNNVYGFRPSQGRVPHGPQAELFVQQLATEGPMGRSVADLARLLATQAGYDPRCPLSLRDDPRRFADDLGRDFRGARLGWLGDYAGYLPMEEGVLELCEAALGDFAELGCDVEACLPDYPLERLWRTWLVHRQWLVQGSLGELYADPARRVRLKPEAQWEVESGLGLGAAEVYRASLDRSDWYRALARLFERYDFLLLPSAQVFPFDAETAWPRQVAGRPMDTYHRWMEVVIGPTLAGLPAISVPIGFGAAGLPMGLQIIGPAQADLAVLQLAHAHEGLTRWVSRRPPAMLEAPGGI,not soluble
16,MGSDKIHHHHHHMSVRQPLPERLRPTVLEGFVGQTHLTQRIEALLRANRLPSLLLFGPPGCGKSTLALLLAKARSANVLRLSAPEAGLQHLRKQLHGVDILVLDELHRFSKAQQDFFLPLLESGDITMLATTTENPSFSVTRQLLSRLHVLRLRPLGRAELLELGRRGAVAQEVQIEDDVLDLLASMSHGDARTMLNLLEYVAALPEDKRDIEGVRSAMPEIVSRHDKDGDNHYELASALIKSIRGSDPDAALYYLACLLEGGEDPRFVCRRLILSASEDVGLADPQALPLAVACMQAVEYVGMPEGFIPMAQTTVHLALARKSNSTYAAYINAARELKTQGRKGVPLHLRNPSTRLQKEWGYGKGYRYPHSYPEGWIEQEYLPEGLEDRRFYAPRENGEEPRLSAWWRKLQRQRPPRRGSGE,not soluble
17,MQGEDTIMKTTELKLVYFSPTGTTRRVIMEAARQIDLKSVSFDLSVHKEKKPVLQFDETDFVLFGIPVYSGRVPETFLSYFETLKGNNTPAALIATYGCRAYEDALLELKTEVENRGFHVIGAGAFPTEHSIVRSIGLSRPNKADLKTISEFGIALNRRIKNEDLSALSIQVPGNTPYRKYAKTPLIPKADVSLCTECKACVKSCPAGAISAQDPKKTDKKKCISCLRCVRSCKQKARSVSSMKLSMAAKKLNKVCQSDKAADIFL,not soluble
18,MGSDKIHHHHHHMQILTIDVGGTTALFELQLAGHTEQYKIPTGEGFKIEELNNQIAALERDYDLQDYQLAIGVPGLVQNNRLVACKSLPGLNGLSFDTVKTQGELKFICNDMDAGMQATCDAKYACELLVMCGTGIGMSIAFNGQAFTGATGVAGELGHCRVMTESGEFSLEQLASGDSVRSRNITTQDDLYRAGSYLGMGLAWTVNLFNPNRIWLAGNMMNSAPYYKGCLESLKQMALSAPLAEMKINRVDDMETLVCRGLSAMLARDYPRA,not soluble
19,MSDLLDTVRGLAKKTDSKILMVVLDGVGGLPLTVNGDTELATARTPNLDALAQESQLGQLELVGAGITPGSGPGHLSLFGYDPLKYVVGRGALSAVGIGVKLNRGDVAVRGNFATLGAGRLILDRRAGRPSDEKNAEIVAKLRAAIPEIDGVAVEVYTESEHRFVVVFRAPEGQPLGANISDVDPQVTGVEPKTAIANDPSSEVTAGLINTFVARAEVALADEPQVNGVLFRGYSDVPHFPSFEDAYQLKAACIASYPMYKGLASLVGMDVLPVEGHEDALEGKVKALRENWAKYDFFYFHIKKTDSTGEDGDFAEKVHKIELFDELLPQLLELQPDVIAVVGDHSTPSKLKSHSWHPVPLLIRSNYGRRDPAQRYTEEEAARGTLGLRHGPDLMPLLMANALKLNKYGALEHHHHHH,soluble
